{
  "source": "patent US20250236644A1",
  "about": "(published 2025)",
  "binders": {"B1": {"name": "swapped target hinge csw20 (designed binder)", "chain": "MSGMEEVKELVEKAEELAKEAEELIKKAKKTGNPELLKEALRKLKEAVELAKEAVELDPEHEEAIELLARLAEKLLEVAKLLIELAKKTGNPELLKEALRALKEAREALRLAAEHAPEDAKLLARLAARLAELALLIAKILIELAKKTGNPELLLKALKVLTLAVEAVEAALEADPRLKEAVRVAKELAEVLKELAKLAKELAKKTGNEELKEAAKEAEEVAKRAEELAREAEGSGSHHWGSTHHHHHH"}, "B2": {"name": "hinge cs074 (designed binder)", "chain": "MSGDEEVQEAVERAEELREEAEELIKKARKTGDPELLRKALEALKEAVRAVKEAIKRNPDNEEAVKTAVRLARELLKVAEELKERAEKTGDPRLLLLAAEAIAWAIEAVFLAAKASENTEGALEAARAAVKLAEVAKRIAKLLQRDAKKEGDPELLKLALRALELAVRAVELAIKENPDNEEAVETAKRLAEELRKVAELLEERAKETGDPELQELAKRAKEVADRARELAKKSNPNNGSGSHHWGSTHHHHHH"}, "B3": {"name": "hinge js007 (designed binder)", "chain": "MSGSEEVNERVKQLAEKAKEATDKEEVIEIVKELAELAKQSTDPNLVAEVVRALTEVAKTSTDTELIQEIVKVLLELARRLTDPQLLLEVLKSIAELLKELAEKTGNETAKLAALVAQIAAEVVEMALRAEKTHPGSEIVKLAVELVQKVAEIVLIAAQLMLDKPNSDEVRKVLKEVEKVAREALKALREAKRHPDSQKARDEIKEASQKAEEVKERIERAQEGSGSHHWGSTHHHHHH"}, "B4": {"name": "hinge cs221 (designed binder)", "chain": "MSGEMKEEIRRLAEELRERTKDEEVRELAREAARLAEESDDEEVKEVVKKALEAALKSKDEEVIRLLLLAAVLAAAAARSGSPEEKLEIAKKALELAMKSKDEEVIRLALLAAVLAARSDDEEVLKKVKEALEKAMESKDVEEIRERLREAVEVARAGSGSHHWGSTHHHHHH"}, "B5": {"name": "hinge cs201 (designed binder)", "chain": "MSGDEEVQEAVERAEELREEAEELIKKARKTGDPELLRKALEALKEAVRAVREAIKRNPDNEEAIKTALRLARELRKVAKELIERARKTGDAELLKKALEAARVAVEAVRLAAEYNKENAEKMAELLVELAELAREVADVLIELAEKTGDPELLKKALEVLEEAVEAVRLAIEYDPDHEEAVETAKRLAEELRKVAELLEERAKETGDPELQELAKRAKEVADRARELAKKSNGSGSHHWGSTHHHHHH"}, "B6": {"name": "swapped target hinge csw13 (designed binder)", "chain": "MSGNEEVKKLVEEAKKYLKEAEEYIKKAKKTGNEELLEKALKLLEKALELVKKAIELDPNNKEAIEQAVEIARALNEVAELLIEEAKKTGNEELLEKALEALEAANEALKLAIENNENDKELLAEIAVELAEVGVLLAEVLIEEAKKTGDPELLKLALEVLEAAVEALELALKLDPNNEEAVELAEEAAKLLEEVAKELKEEAKKTGDPELEKLAKEAEELAKRAKELAERQRGSGSHHWGSTHHHHHH"}},
  "key": {"[1]": {"target": "T1, TAMRA-labeled effector peptide cs201B (5(6)-TAMRA label coupled on resin after synthesis)", "T1 peptide": "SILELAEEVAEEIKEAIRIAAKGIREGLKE", "experiment": "fluorescence polarization"}, "[2]": {"target": "T2, TAMRA-labeled effector peptide cs221B (5(6)-TAMRA label coupled on resin after synthesis)", "T2 peptide": "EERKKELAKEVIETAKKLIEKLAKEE", "experiment": "fluorescence polarization"}, "[3]": {"target": "T3, TAMRA-labeled effector peptide cs074B (5(6)-TAMRA label coupled on resin after synthesis)", "T3 peptide": "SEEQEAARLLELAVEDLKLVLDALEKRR", "experiment": "fluorescence polarization"}, "[4]": {"target": "T3, TAMRA-labeled effector peptide cs074B", "experiment": "fluorescence polarization"}, "[5]": {"target": "T4, TAMRA-labeled effector peptide js007B (5(6)-TAMRA label coupled on resin after synthesis)", "T4 peptide": "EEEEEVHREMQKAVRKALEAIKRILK", "experiment": "fluorescence polarization"}, "[6]": {"target": "T2, TAMRA-labeled effector peptide cs221B", "experiment": "fluorescence polarization"}, "[7]": {"target": "cs221-V111L-A114T DEER site pair 1", "experiment": "fluorescence polarization; MTSL-labeled, site pair 1"}},
  "note": "Where two headings read alike, the source gives them in different places. Ends that are not written are not given here.",
  "data": [
    {"binder": "B1", "values": [
      {"measurement": "Kd", "setting": "[1]", "result": 12, "unit": "nM"},
      {"measurement": "Kd", "setting": "[2]", "result": 1500, "unit": "nM"},
      {"measurement": "Kd", "setting": "[3]", "result": "< 1", "unit": "nM"}
    ]},
    {"binder": "B2", "values": [
      {"measurement": "Kd", "setting": "[4]", "result": 1, "unit": "nM"}
    ]},
    {"binder": "B3", "values": [
      {"measurement": "Kd", "setting": "[5]", "result": 6, "unit": "nM"}
    ]},
    {"binder": "B4", "values": [
      {"measurement": "Kd", "setting": "[6]", "result": 1.5, "unit": "nM"}
    ]},
    {"binder": "B5", "values": [
      {"measurement": "Kd", "setting": "[1]", "result": 17, "unit": "nM"},
      {"measurement": "Kd", "setting": "[2]", "result": 4370, "unit": "nM"}
    ]},
    {"binder": "B6", "values": [
      {"measurement": "Kd", "setting": "[2]", "result": "< 1", "unit": "nM"}
    ]},
    {"binder": "{5(6)‑TAMRA}-EERKKELAKEVIETAKKLIEKLAKEE", "note": "[TAMRA-labeled peptide cs221B]", "values": [
      {"measurement": "Kd", "setting": "[7]", "result": 0.4, "unit": "nM"}
    ]}
  ]
}
